{"source": "IntAct's records for PubMed 32296183", "parents": {"B1": {"name": "Golgi SNAP receptor complex member 2 (Homo sapiens), O14653 (parent)", "chain": "MDPLFQQTHKQVHEIQSCMGRLETADKQSVHIVENEIQASIDQIFSRLERLEILSSKEPPNKRQNARLRVDQLKYDVQHLQTALRNFQHRRHAREQQERQREELLSRTFTTNDSDTTIPMDESLQFNSSLQKVHNGMDDLILDGHNILDGLRTQRLTLKGTQKKILDIANMLGLSNTVMRLIEKRAFQDKYFMIGGMLLTCVVMFLVVQYLT", "partner": "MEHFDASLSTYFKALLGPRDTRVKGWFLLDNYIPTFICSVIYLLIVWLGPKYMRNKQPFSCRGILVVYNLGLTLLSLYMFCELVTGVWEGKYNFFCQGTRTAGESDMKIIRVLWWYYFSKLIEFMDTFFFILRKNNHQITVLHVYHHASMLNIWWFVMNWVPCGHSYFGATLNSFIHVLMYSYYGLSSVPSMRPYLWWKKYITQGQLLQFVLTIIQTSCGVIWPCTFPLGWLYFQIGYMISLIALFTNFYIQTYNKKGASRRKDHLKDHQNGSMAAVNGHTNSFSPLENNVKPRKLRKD"}, "B2": {"name": "Golgi SNAP receptor complex member 2 (Homo sapiens), O14653 (parent)", "chain": "B1 chain", "partner": "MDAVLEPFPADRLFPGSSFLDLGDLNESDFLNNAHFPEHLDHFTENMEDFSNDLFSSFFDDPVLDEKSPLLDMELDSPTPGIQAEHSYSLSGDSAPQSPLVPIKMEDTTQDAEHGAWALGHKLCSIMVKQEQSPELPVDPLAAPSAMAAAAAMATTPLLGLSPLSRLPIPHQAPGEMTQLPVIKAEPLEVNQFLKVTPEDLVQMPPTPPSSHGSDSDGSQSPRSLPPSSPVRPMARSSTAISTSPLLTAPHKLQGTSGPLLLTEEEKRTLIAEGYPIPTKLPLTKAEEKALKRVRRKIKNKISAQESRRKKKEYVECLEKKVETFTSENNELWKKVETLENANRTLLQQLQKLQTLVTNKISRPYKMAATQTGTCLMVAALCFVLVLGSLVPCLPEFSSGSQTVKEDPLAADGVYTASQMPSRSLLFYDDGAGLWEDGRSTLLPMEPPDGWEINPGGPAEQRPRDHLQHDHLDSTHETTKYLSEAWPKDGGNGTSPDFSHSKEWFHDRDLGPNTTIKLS"}, "B3": {"name": "Very-long-chain enoyl-CoA reductase (Homo sapiens), Q9NZ01 (parent)", "chain": "MKHYEVEILDAKTREKLCFLDKVEPHATIAEIKNLFTKTHPQWYPARQSLRLDPKGKSLKDEDVLQKLPVGTTATLYFRDLGAQISWVTVFLTEYAGPLFIYLLFYFRVPFIYGHKYDFTSSRHTVVHLACICHSFHYIKRLLETLFVHRFSHGTMPLRNIFKNCTYYWGFAAWMAYYINHPLYTPPTYGAQQVKLALAIFVICQLGNFSIHMALRDLRPAGSKTRKIPYPTKNPFTWLFLLVSCPNYTYEVGSWIGFAIMTQCLPVALFSLVGFTQMTIWAKGKHRSYLKEFRDYPPLRMPIIPFLL", "partner": "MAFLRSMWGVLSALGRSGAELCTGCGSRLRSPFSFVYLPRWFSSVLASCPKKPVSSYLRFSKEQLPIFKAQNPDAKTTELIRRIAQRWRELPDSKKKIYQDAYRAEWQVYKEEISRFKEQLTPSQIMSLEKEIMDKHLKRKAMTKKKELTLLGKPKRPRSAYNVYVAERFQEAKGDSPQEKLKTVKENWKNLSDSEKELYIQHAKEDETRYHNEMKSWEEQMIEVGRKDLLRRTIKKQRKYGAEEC"}, "B4": {"name": "Ceroid-lipofuscinosis neuronal protein 6 (Homo sapiens), Q9NWW5 (parent)", "chain": "MEATRRRQHLGATGGPGAQLGASFLQARHGSVSADEAARTAPFHLDLWFYFTLQNWVLDFGRPIAMLVFPLEWFPLNKPSVGDYFHMAYNVITPFLLLKLIERSPRTLPRSITYVSIIIFIMGASIHLVGDSVNHRLLFSGYQHHLSVRENPIIKNLKPETLIDSFELLYYYDEYLGHCMWYIPFFLILFMYFSGCFTASKAESLIPGPALLLVAPSGLYYWYLVTEGQIFILFIFTFFAMLALVLHQKRKRLFLDSNGLFLFSSFALTLLLVALWVAWLWNDPVLRKKYPGVIYVPEPWAFYTLHVSSRH", "partner": "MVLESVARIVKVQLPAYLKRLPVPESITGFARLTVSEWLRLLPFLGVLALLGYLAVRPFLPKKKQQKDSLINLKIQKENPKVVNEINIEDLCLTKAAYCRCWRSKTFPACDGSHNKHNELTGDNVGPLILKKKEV"}, "B5": {"name": "Ceroid-lipofuscinosis neuronal protein 6 (Homo sapiens), Q9NWW5 (parent)", "chain": "B4 chain", "partner": "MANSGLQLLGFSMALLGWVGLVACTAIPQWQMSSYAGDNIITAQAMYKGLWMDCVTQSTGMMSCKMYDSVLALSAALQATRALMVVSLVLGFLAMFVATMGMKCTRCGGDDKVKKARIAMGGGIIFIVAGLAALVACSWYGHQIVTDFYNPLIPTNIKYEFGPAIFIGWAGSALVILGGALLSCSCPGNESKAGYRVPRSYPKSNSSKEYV"}, "B6": {"name": "Ceroid-lipofuscinosis neuronal protein 6 (Homo sapiens), Q9NWW5 (parent)", "chain": "B4 chain", "partner": "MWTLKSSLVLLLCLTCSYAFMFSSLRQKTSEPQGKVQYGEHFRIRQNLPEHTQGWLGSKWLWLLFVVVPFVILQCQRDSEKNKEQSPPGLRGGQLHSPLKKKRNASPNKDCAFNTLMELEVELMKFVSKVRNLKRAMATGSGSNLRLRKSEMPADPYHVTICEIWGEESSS"}, "B7": {"name": "Very-long-chain enoyl-CoA reductase (Homo sapiens), Q9NZ01 (parent)", "chain": "B3 chain", "partner": "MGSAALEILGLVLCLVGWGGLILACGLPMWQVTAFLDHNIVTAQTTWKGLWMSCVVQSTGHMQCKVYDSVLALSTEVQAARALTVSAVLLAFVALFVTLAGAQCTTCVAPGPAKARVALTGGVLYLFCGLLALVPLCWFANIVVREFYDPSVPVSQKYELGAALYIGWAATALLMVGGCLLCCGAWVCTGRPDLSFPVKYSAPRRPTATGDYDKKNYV"}, "B8": {"name": "Very-long-chain enoyl-CoA reductase (Homo sapiens), Q9NZ01 (parent)", "chain": "B3 chain", "partner": "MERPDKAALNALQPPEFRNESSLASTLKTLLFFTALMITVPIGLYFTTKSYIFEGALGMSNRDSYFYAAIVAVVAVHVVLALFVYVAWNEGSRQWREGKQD"}, "B9": {"name": "Golgi SNAP receptor complex member 2 (Homo sapiens), O14653 (parent)", "chain": "B1 chain", "partner": "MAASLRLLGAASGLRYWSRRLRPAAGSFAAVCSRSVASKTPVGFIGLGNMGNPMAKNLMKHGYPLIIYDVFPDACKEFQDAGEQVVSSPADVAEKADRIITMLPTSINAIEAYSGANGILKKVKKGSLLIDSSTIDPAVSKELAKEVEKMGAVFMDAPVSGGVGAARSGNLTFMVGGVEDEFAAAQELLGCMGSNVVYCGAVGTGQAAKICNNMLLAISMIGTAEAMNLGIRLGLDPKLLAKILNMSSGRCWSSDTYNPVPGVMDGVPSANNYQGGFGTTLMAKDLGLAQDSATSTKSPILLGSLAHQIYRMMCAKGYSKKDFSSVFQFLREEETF"}, "B10": {"name": "Catenin alpha-3 (Homo sapiens), Q9UI47-2 (parent)", "chain": "MSAETPITLNIDPQDLQVQTFTVEKLLEPLIIQVTTLVNCPQNPSSRKKGRSKRASVLLASVEEATWNLLDKGEKIAQEATVLKDELTASLEEVRKESEALKVSAERFTDDPCFLPKREAVVQAARALLAAVTRLLILADMIDVMCLLQHVSAFQRTFESLKNVANKSDLQKTYQKLGKELENLDYLAFKRQQDLKSPNQRDEIAGARASLKENSPLLHSICSACLEHSDVASLKASKDTVCEEIQNALNVISNASQGIQNMTTPPEPQAATLGSALDELENLIVLNPLTVTEEEIRPSLEKRLEAIISGAALLADSSCTRDLHRERIIAECNAIRQALQDLLSEYMNNAGKKERSNTLNIALDNMCKKTRDLRRQLRKAIIDHVSDSFLDTTVPLLVLIEAAKNGREKEIKEYAAIFHEHTSRLVEVANLACSMSTNEDGIKIVKIAANHLETLCPQIINAALALAARPKSQAVKNTMEMYKRTWENHIHVLTEAVDDITSIDDFLAVSGMFLFF", "partner": "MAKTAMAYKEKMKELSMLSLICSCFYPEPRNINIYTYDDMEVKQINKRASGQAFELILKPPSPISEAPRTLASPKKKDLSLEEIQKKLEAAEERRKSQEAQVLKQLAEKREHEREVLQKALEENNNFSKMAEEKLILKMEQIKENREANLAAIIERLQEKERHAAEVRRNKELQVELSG"}, "B11": {"name": "Golgi SNAP receptor complex member 2 (Homo sapiens), O14653 (parent)", "chain": "B1 chain", "partner": "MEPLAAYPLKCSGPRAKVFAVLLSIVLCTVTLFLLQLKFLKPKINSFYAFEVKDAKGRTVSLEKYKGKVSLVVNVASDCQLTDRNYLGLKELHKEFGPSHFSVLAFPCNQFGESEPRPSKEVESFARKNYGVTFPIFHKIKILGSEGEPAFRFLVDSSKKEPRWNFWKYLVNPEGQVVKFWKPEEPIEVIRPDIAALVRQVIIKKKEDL"}, "B12": {"name": "Very-long-chain enoyl-CoA reductase (Homo sapiens), Q9NZ01 (parent)", "chain": "B3 chain", "partner": "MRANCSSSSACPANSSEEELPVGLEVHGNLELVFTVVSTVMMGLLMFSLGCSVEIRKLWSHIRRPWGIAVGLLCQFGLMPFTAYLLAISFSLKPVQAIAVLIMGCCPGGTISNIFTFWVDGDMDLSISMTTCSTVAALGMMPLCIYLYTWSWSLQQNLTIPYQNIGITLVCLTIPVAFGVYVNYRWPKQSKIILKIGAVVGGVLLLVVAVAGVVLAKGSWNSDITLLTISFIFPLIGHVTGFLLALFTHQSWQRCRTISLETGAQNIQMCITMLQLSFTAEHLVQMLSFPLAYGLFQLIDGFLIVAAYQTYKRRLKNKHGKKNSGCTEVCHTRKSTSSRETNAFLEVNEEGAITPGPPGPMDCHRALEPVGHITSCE"}, "B13": {"name": "Golgi SNAP receptor complex member 2 (Homo sapiens), O14653 (parent)", "chain": "B1 chain", "partner": "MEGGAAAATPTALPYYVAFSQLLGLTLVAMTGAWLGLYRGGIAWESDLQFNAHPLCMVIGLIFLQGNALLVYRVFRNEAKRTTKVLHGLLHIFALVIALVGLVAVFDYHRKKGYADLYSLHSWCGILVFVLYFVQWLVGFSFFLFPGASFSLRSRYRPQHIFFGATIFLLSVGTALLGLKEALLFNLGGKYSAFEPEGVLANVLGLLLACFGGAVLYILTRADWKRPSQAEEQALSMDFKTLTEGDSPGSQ"}}}
{"variants_of": "B1", "conditions": "with elov5_human ELOVL5, Q9NYP7"}
{"variant": "G144W", "effect of a mutation on the interaction": "with no effect"}
{"variants_of": "B2", "conditions": "with cr3l1_human CREB3L1, Q96BA8"}
{"variant": "G144W", "effect of a mutation on the interaction": "with no effect"}
{"variants_of": "B3", "conditions": "with tfam_human TFAM"}
{"variant": "P182L", "effect of a mutation on the interaction": "disrupting interaction strength"}
{"variants_of": "B4", "conditions": "with cisd2_human CISD2, Q8N5K1"}
{"variant": "G123D", "effect of a mutation on the interaction": "with no effect"}
{"variant": "L47F", "effect of a mutation on the interaction": "with no effect"}
{"variant": "R6T", "effect of a mutation on the interaction": "with no effect"}
{"variants_of": "B5", "conditions": "with cld7_human CLDN7, O95471"}
{"variant": "G123D", "effect of a mutation on the interaction": "with no effect"}
{"variant": "R6T", "effect of a mutation on the interaction": "disrupting interaction strength"}
{"variants_of": "B6", "conditions": "with FAM209A"}
{"variant": "G123D", "effect of a mutation on the interaction": "with no effect"}
{"variant": "L47F", "effect of a mutation on the interaction": "with no effect"}
{"variants_of": "B7", "conditions": "with cld5_human CLDN5, O00501"}
{"variant": "P182L", "effect of a mutation on the interaction": "disrupting interaction strength"}
{"variants_of": "B8", "conditions": "with vma21_human VMA21, Q3ZAQ7"}
{"variant": "P182L", "effect of a mutation on the interaction": "disrupting interaction strength"}
{"variants_of": "B9", "conditions": "with 3hidh_human HIBADH"}
{"variant": "G144W", "effect of a mutation on the interaction": "disrupting interaction strength"}
{"variants_of": "B10", "conditions": "with stmn2_human STMN2, Q93045"}
{"variant": "V94D", "effect of a mutation on the interaction": "with no effect"}
{"variants_of": "B11", "conditions": "with gpx8_human GPX8, Q8TED1"}
{"variant": "G144W", "effect of a mutation on the interaction": "with no effect"}
{"variants_of": "B12", "conditions": "with soat_human SLC10A6, Q3KNW5"}
{"variant": "P182L", "effect of a mutation on the interaction": "with no effect"}
{"variants_of": "B13", "conditions": "with cy561_human CYB561, P49447"}
{"variant": "G144W", "effect of a mutation on the interaction": "with no effect"}
